Results taken from PMC11937253 (2025).
Read-outs that look alike come from different tables or passages of the source.

B1: recombinant MPXV [change] protein (ectodomain, His-tagged) (domain or fragment)
chain: MGAAASIQTTVNTLSERISSKLEQEANASAQTKCDIEIGNFYIRQNHGCNITVKNMCSADADAQLDAVLSAATETYSGLTPEQKAYVPAMFTAALNIQTSVNTVVRDFENYVKQTCNSSAVVDNKLKIQNVIIDECYGAPGSPTNLEFINTGSSKGNCAIKALMQLTTKATTQIAPRQVAG
B2: nanobody M1R-01 (monovalent) (VHH)
VHH: QVQLVESGGGLVQAGGSLRLSCAASGFIFHNFDMGWYRQAPGKEREFVAAISDNGRSTYYADSVKGRFTISRDNAKNTVYLQMNSLKPEDTAVYYCAVAWLSIPDLAEWYDYWGQGTQVTVSS

Key:
Test in all cases: SPR
7D11 = target: 7D11
[1] = target: T1, recombinant MPXV [change] protein (ectodomain, His-tagged) (mpox virus (MPXV), isolate …)
[2] = target: T1, recombinant MPXV [change] protein …; remark: listed apart in the source

Row | Binder | Kd (7D11) [nM] | Kd [1] [nM] | Kd [2] [nM]
1 | B1 | 0.0198 |  | 
2 | B2 |  | 40.4 | 40
